Among the data in paper PMC10909901 are FRET efficiency E, mean CFP donor lifetime T in the presence of the acceptor and Δt (decrease of donor lifetime) values, retold here.

Assay [1] deals with AtWRKY22-YFP (Arabidopsis thaliana) (UniProt O04609). Nature of the assay: FRET or BRET. On the technique in general: In BRET a luciferase serves as donor, and the signal depends on an acceptor being close.
Assay [2] concerns the target RRS1-R-YFP (Arabidopsis thaliana) (UniProt C4B7M5). Nature of the assay: FRET or BRET.
Chain of UniProt C4B7M5 (C4B7M5 whole entry): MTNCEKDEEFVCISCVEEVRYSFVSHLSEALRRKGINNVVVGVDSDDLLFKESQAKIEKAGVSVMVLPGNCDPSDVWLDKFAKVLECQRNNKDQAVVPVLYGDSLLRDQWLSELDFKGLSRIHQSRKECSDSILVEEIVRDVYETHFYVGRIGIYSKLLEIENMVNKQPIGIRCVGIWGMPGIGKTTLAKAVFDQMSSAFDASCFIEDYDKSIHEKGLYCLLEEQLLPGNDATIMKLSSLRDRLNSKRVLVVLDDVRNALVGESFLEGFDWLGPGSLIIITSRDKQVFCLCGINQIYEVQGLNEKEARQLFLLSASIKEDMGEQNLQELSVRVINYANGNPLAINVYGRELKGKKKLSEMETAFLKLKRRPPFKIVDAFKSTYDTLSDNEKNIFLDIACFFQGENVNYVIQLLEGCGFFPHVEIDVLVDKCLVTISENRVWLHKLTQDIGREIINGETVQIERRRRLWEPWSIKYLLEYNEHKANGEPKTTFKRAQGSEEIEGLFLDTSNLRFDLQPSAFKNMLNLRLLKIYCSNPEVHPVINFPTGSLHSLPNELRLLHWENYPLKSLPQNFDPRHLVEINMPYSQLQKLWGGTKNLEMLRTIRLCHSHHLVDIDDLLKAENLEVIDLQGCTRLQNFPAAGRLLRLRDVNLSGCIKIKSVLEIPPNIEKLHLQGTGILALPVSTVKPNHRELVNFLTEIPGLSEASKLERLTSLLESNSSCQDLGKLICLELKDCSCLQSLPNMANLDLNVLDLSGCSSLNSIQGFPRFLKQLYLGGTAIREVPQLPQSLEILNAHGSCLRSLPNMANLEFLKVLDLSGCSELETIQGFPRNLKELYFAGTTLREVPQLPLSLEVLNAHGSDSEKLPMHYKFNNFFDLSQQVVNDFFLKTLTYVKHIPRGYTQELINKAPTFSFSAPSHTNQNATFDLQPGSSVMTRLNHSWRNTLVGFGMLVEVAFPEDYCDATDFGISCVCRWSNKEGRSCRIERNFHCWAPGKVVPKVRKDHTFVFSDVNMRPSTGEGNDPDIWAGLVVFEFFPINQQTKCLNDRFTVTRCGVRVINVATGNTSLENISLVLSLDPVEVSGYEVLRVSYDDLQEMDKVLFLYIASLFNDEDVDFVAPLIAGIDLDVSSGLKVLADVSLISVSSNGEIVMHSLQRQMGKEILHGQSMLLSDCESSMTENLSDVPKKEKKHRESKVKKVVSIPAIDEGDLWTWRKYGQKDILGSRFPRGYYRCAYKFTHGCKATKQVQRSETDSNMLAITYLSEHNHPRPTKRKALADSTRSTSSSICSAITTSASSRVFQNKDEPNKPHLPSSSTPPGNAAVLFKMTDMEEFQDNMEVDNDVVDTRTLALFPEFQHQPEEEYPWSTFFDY

Chain of UniProt O04609 (O04609 whole entry): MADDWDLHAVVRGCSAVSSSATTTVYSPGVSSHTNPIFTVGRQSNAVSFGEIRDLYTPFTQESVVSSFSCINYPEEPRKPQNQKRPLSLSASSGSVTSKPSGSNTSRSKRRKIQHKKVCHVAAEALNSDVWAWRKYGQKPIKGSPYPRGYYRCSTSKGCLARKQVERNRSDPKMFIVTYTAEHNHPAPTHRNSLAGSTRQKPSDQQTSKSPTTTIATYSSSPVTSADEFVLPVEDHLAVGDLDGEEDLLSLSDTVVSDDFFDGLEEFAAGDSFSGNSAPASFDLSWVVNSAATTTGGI

For XopJ6_(CN06)-CFP (natural protein), in assay [1], the FRET efficiency E came to 9.49%, the mean CFP donor lifetime T in the presence of the acceptor was found to be 3.48 ns and the Δt (decrease of donor lifetime) was 365 ps. Further, in assay [2], the FRET efficiency E worked out at 15%, the mean CFP donor lifetime T in the presence of the acceptor stood at 3.27 ns and the Δt (decrease of donor lifetime) worked out at 578 ps.
For XopJ6^C409A-CFP (natural protein), in assay [1], the FRET efficiency E amounted to 9.67% and the mean CFP donor lifetime T in the presence of the acceptor was determined as 3.36 ns. For the same substance, in assay [2], the FRET efficiency E amounted to 12.1%, the mean CFP donor lifetime T in the presence of the acceptor was 3.27 ns and the Δt (decrease of donor lifetime) amounted to 452 ps.
